Measurements from article PMC7954794, “Protein context shapes the specificity of SH3 domain-mediated interactions in vivo” (Nature Communications, 2021).

Tested on: Abp1 PPIs
Assay: DHFR-PCA of Abp1 SH3-swapped baits (Fig. 2B-D, S2C, S2F);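 as to Protein-protein interaction distance between Abp1 SH3-swapped baits, to ABP1: Euclidean distance between DHFR-PCA score profiles of the baits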;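 as to Protein-protein interaction distance between Abp1 SH3-swapped baits, to BEM1-2: Euclidean distance between DHFR-PCA score profiles of the baits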;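 as to Protein-protein interaction distance between Abp1 SH3-swapped baits, to BOI1: Euclidean distance between DHFR-PCA score profiles of the baits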;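 as to Protein-protein interaction distance between Abp1 SH3-swapped baits, to BZZ1-1: Euclidean distance between DHFR-PCA score profiles of the baits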
Format: cell-based, Saccharomyces cerevisiae
Summary of the method: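 Interactions were scored by DHFR protein-fragment complementation. DHFR F[1,2]-tagged Abp1 strains, whose SH3 was swapped for yeast or human ortholog domains, were crossed on YPD at 30 °C for 48 h with a 1536-format array of 575 prey-DHFR F[3] strains and 40 negatives, giving four replicates per pair. PCA selection lasted 4 days after double diploid selection.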

[1] = number of PPIs, difference, Abp1 SH3-swapped with the listed SH3, Fig2D,S2F

B1: LSB3 (protein)
chain: MGINNPIPRSLKSETKKAAKILASFVKPNQVFGADQVIPPDVLKRAKGLAIITILKAGFLFSGRAGSGVIVARLKDGTWSAPSAIAMAGAGAGGMVGIELTDFVFILNTQDAVKSFSEFGTITLGGNVSVSAGPLGRSAEAAASASAGGVAAVFAYSKSKGLFAGVSVEGSAIIERREANRKFYGDNCTAKMILSGRIRPPPAVDPLFRVLESRAFNYRPSNGGRGSFDDDEDDYYDDDDYYNDIPSSFSSTDASSTRPNTRSTRRRAQSGSRYTFDDDDDDDDYGTGYSRNSRLAPTNSGGSGGKLDDPSGASSYYASHRRSGTAQSRARSSRNRWADDEYDDYDDDYESGYRRGNGRDRTKDREVDDLSNRFSKSRISSASTPQTSQGRFTAPTSPSTSSPKAVALYSFAGEESGDLPFRKGDVITILKKSDSQNDWWTGRVNGREGIFPANYVELV
modifications: left off: DHFR F[3], C-terminal, kept
**Q.** How did the “Protein-protein interaction distance between Abp1 SH3-swapped baits, to ABP1” value (Abp1 bait with swapped SH3, distance to bait with ABP1 SH3, sheet Fig2C) turn out when B1 was run?
**A.** 13.53

**Q.** And the “Protein-protein interaction distance between Abp1 SH3-swapped baits, to BBC1” value (distance to Abp1 bait with BBC1 SH3, sheet Fig2C)?
**A.** 13.63

**Q.** What about the “Protein-protein interaction distance between Abp1 SH3-swapped baits, to BEM1-1” value (distance to Abp1 bait with BEM1-1 SH3, sheet Fig2C) of the same molecule?
**A.** 19.15

**Q.** And the “Protein-protein interaction distance between Abp1 SH3-swapped baits, to BEM1-2” value (distance to Abp1 bait with BEM1-2 SH3, sheet Fig2C)?
**A.** 36.03

**Q.** And the “Protein-protein interaction distance between Abp1 SH3-swapped baits, to BOI1” value (distance to Abp1 bait with BOI1 SH3, sheet Fig2C)?
**A.** 16.12

**Q.** And the “Protein-protein interaction distance between Abp1 SH3-swapped baits, to BOI2” value (distance to Abp1 bait with BOI2 SH3, sheet Fig2C)?
**A.** 19.6

**Q.** What about the “Protein-protein interaction distance between Abp1 SH3-swapped baits, to BUD14” value (distance to Abp1 bait with BUD14 SH3, sheet Fig2C) of the same molecule?
**A.** 22.11

**Q.** And the “Protein-protein interaction distance between Abp1 SH3-swapped baits, to BZZ1-1” value (distance to Abp1 bait with BZZ1-1 SH3, sheet Fig2C)?
**A.** 10.79

**Q.** And the “Protein-protein interaction distance between Abp1 SH3-swapped baits, to BZZ1-2” value (distance to Abp1 bait with BZZ1-2 SH3, sheet Fig2C)?
**A.** 16.06

**Q.** What about the “Protein-protein interaction distance between Abp1 SH3-swapped baits, to CDC25” value (distance to Abp1 bait with CDC25 SH3, sheet Fig2C) of the same molecule?
**A.** 30.47

**Q.** And the “Protein-protein interaction distance between Abp1 SH3-swapped baits, to CTTN” value (distance to Abp1 bait with CTTN SH3, sheet Fig2C)?
**A.** 16.7

**Q.** And the “Protein-protein interaction distance between Abp1 SH3-swapped baits, to CYK3” value (distance to Abp1 bait with CYK3 SH3, sheet Fig2C)?
**A.** 31.13

**Q.** What about the “Protein-protein interaction distance between Abp1 SH3-swapped baits, to DBNL” value (distance to Abp1 bait with DBNL SH3, sheet Fig2C) of the same molecule?
**A.** 10.88

**Q.** What about the “Protein-protein interaction distance between Abp1 SH3-swapped baits, to FUS1” value (distance to Abp1 bait with FUS1 SH3, sheet Fig2C) of the same molecule?
**A.** 23.48

**Q.** What about the “Protein-protein interaction distance between Abp1 SH3-swapped baits, to HCLS1” value (distance to Abp1 bait with HCLS1 SH3, sheet Fig2C) of the same molecule?
**A.** 10.8

**Q.** And the “Protein-protein interaction distance between Abp1 SH3-swapped baits, to HOF1” value (distance to Abp1 bait with HOF1 SH3, sheet Fig2C)?
**A.** 34.67

**Q.** What about the “Protein-protein interaction distance between Abp1 SH3-swapped baits, to HSE1” value (distance to Abp1 bait with HSE1 SH3, sheet Fig2C) of the same molecule?
**A.** 12.29

**Q.** What about the “Protein-protein interaction distance between Abp1 SH3-swapped baits, to LSB1” value (distance to Abp1 bait with LSB1 SH3, sheet Fig2C) of the same molecule?
**A.** 3.731

**Q.** What about the “Protein-protein interaction distance between Abp1 SH3-swapped baits, to LSB3” value (distance to Abp1 bait with LSB3 SH3, sheet Fig2C) of the same molecule?
**A.** 0.00

**Q.** And the “Protein-protein interaction distance between Abp1 SH3-swapped baits, to MYO3” value (distance to Abp1 bait with MYO3 SH3, sheet Fig2C)?
**A.** 9.625

**Q.** What about the “Protein-protein interaction distance between Abp1 SH3-swapped baits, to MYO5” value (distance to Abp1 bait with MYO5 SH3, sheet Fig2C) of the same molecule?
**A.** 8.063

**Q.** And the “Protein-protein interaction distance between Abp1 SH3-swapped baits, to NBP2” value (distance to Abp1 bait with NBP2 SH3, sheet Fig2C)?
**A.** 21.33

**Q.** What about the “Protein-protein interaction distance between Abp1 SH3-swapped baits, to PEX13” value (distance to Abp1 bait with PEX13 SH3, sheet Fig2C) of the same molecule?
**A.** 7.361

**Q.** What about the “Protein-protein interaction distance between Abp1 SH3-swapped baits, to PIN3” value (distance to Abp1 bait with PIN3 SH3, sheet Fig2C) of the same molecule?
**A.** 5.817

**Q.** And the “Protein-protein interaction distance between Abp1 SH3-swapped baits, to RVS167” value (distance to Abp1 bait with RVS167 SH3, sheet Fig2C)?
**A.** 7.852

**Q.** What about the “Protein-protein interaction distance between Abp1 SH3-swapped baits, to SDC25” value (distance to Abp1 bait with SDC25 SH3, sheet Fig2C) of the same molecule?
**A.** 36.63

**Q.** What about the “Protein-protein interaction distance between Abp1 SH3-swapped baits, to SHO1” value (distance to Abp1 bait with SHO1 SH3, sheet Fig2C) of the same molecule?
**A.** 11.76

**Q.** What about the “Protein-protein interaction distance between Abp1 SH3-swapped baits, to SLA1-1” value (distance to Abp1 bait with SLA1-1 SH3, sheet Fig2C) of the same molecule?
**A.** 32.92

**Q.** And the “Protein-protein interaction distance between Abp1 SH3-swapped baits, to SLA1-2” value (distance to Abp1 bait with SLA1-2 SH3, sheet Fig2C)?
**A.** 23.82

**Q.** What about the “Protein-protein interaction distance between Abp1 SH3-swapped baits, to SLA1-3” value (distance to Abp1 bait with SLA1-3 SH3, sheet Fig2C) of the same molecule?
**A.** 5.438

**Q.** What about the “Protein-protein interaction distance between Abp1 SH3-swapped baits, to YSC84” value (distance to Abp1 bait with YSC84 SH3, sheet Fig2C) of the same molecule?
**A.** 3.425

**Q.** What about the “PPIs gained by Abp1 - SH3-dependent PPIs gained by Abp1” value [1] of the same molecule?
**A.** 37

**Q.** What about the “SH3-dependent PPIs - SH3-dependent PPIs gained by Abp1” value [1] of the same molecule?
**A.** 15

**Q.** And the “SH3-dependent PPIs gained by Abp1” value (number of PPIs, Abp1 SH3-swapped with the listed SH3, DHFR-PCA, Fig2D,S2F)?
**A.** 4
